B1: CPEB3 Ribozyme (parent)
chain: GGGGGCCACAGCAGAAGCGUUCACGUCGCGGCCCCUGUCAGAUUCUGGUGAAUCUGCGAAUUCUGCUGU

Variants of: B1
Assay: self-cleavage, relative activity (ratio to wild type); higher = more cleavage; co-transcriptional

Variant | self-cleavage
GGGGUCCACAGCAGAAGCGUUCACGUCGCGGCCCCUGUCAGAUUGUGGUGAAUCUGCGAAUUCUGCUGU [G5U C45G] | 0.149
GGGGUCCACAGCAGAAGCGUUCACGCCGCGGCCCCUGUCAGAUUCUGGUGAAUCUGCGAAUUCUGCUGU [G5U U26C] | 0.155
GGGGUCCACAGCAGAAGCGUUCACGUCGCGGCCCCUGUCUGAUUCUGGUGAAUCUGCGAAUUCUGCUGU [G5U A40U] | 0.132
GGGGUCCACAGCAGAAGCGUUCACGUCGCGGCCCCUGUCGGAUUCUGGUGAAUCUGCGAAUUCUGCUGU [G5U A40G] | 0.171
GGGGCCCACAGCAGAAGCGUUCACGUCGCGGCCCCUGUCAGAUUCUGGUGAAUCUGCGAAUGCUGCUGU [G5C U62G] | 0.179
GGGGCCCACAGCAGAAGCGUUCACGUCGCGGCCCCUGUCAGAUUCUGGUGAAUCUGCGAAUCCUGCUGU [G5C U62C] | 0.141
GGGGUCCACAGCAGAAGCGUUCACGUCGCGGCCCCUAUCAGAUUCUGGUGAAUCUGCGAAUUCUGCUGU [G5U G37A] | 0.11
GGGGUACACAGCAGAAGCGUUCACGUCGCGGCCCCUGUCAGAUUCUGGUGAAUCUGCGAAUUCUGCUGU [G5U C6A] | 0.0825
GGGGUGCACAGCAGAAGCGUUCACGUCGCGGCCCCUGUCAGAUUCUGGUGAAUCUGCGAAUUCUGCUGU [G5U C6G] | 0.115
GGGGUCCACAGCAGAAGCGUUCACGUCGCGGCCCCUGUCAGAUUCUGAUGAAUCUGCGAAUUCUGCUGU [G5U G48A] | 0.39
GGGGUCCACAACAGAAGCGUUCACGUCGCGGCCCCUGUCAGAUUCUGGUGAAUCUGCGAAUUCUGCUGU [G5U G11A] | 0.185
GGGGUCCACACCAGAAGCGUUCACGUCGCGGCCCCUGUCAGAUUCUGGUGAAUCUGCGAAUUCUGCUGU [G5U G11C] | 0.0768
GGGGUCCACAGCAGAAGCGUUCACGUCGCGUCCCCUGUCAGAUUCUGGUGAAUCUGCGAAUUCUGCUGU [G5U G31U] | 0.0958
GGGGUCCACAGCAGAAGCGUUCACGUCGCGGCCCCUGUCAAAUUCUGGUGAAUCUGCGAAUUCUGCUGU [G5U G41A] | 0.12
GGGGUCCAGAGCAGAAGCGUUCACGUCGCGGCCCCUGUCAGAUUCUGGUGAAUCUGCGAAUUCUGCUGU [G5U C9G] | 0.772
GGGGUCCACAGCAGAAGCAUUCACGUCGCGGCCCCUGUCAGAUUCUGGUGAAUCUGCGAAUUCUGCUGU [G5U G19A] | 0.06
GGGGUCCACAGCAGAAGCGUUCACGUCGCGGCCCCUGUAAGAUUCUGGUGAAUCUGCGAAUUCUGCUGU [G5U C39A] | 0.0897
GGGGUCCACAGCAGAAGCGUUCACGUCGCGGCCCCUGUGAGAUUCUGGUGAAUCUGCGAAUUCUGCUGU [G5U C39G] | 0.0932
GGGGUCCACAGCAGACGCGUUCACGUCGCGGCCCCUGUCAGAUUCUGGUGAAUCUGCGAAUUCUGCUGU [G5U A16C] | 0.042
GGGGUCCACAGCAGGAGCGUUCACGUCGCGGCCCCUGUCAGAUUCUGGUGAAUCUGCGAAUUCUGCUGU [G5U A15G] | 0.19
GGGGUCCACAGCAGUAGCGUUCACGUCGCGGCCCCUGUCAGAUUCUGGUGAAUCUGCGAAUUCUGCUGU [G5U A15U] | 0.092
GGGGUCCACAGCAGCAGCGUUCACGUCGCGGCCCCUGUCAGAUUCUGGUGAAUCUGCGAAUUCUGCUGU [G5U A15C] | 0.0532
GGGGUCCACAGCAGAAGCGUUCACGUCGCGGCCCCUGUCAGAUUCUGGUGAAUCUGGGAAUUCUGCUGU [G5U C57G] | 0.115
GGGGUCCACAGCAGAAGCGUUCACGUCGCGGCCCCUGUCAGAUUCUGGUGAAUCUGUGAAUUCUGCUGU [G5U C57U] | 0.0743
GGGGUCCACAGCAGAAGCGUUCACGUCGCGGCCCCUGUCAGAUUCUGGUGAAUCUGCGCAUUCUGCUGU [G5U A59C] | 0.181
GGGGUCCACAGCAGAAGCGUUCACGUCGCGGCCCCUGUCAGAUUCUGGUGAAUCUGCGGAUUCUGCUGU [G5U A59G] | 0.139

Variant | self-cleavage
GGGGUCCACAGGAGAAGCGUUCACGUCGCGGCCCCUGUCAGAUUCUGGUGAAUCUGCGAAUUCUGCUGU [G5U C12G] | 0.1
GGGGUCCACAGAAGAAGCGUUCACGUCGCGGCCCCUGUCAGAUUCUGGUGAAUCUGCGAAUUCUGCUGU [G5U C12A] | 0.112
GGGGCCCACAGCAGAAGCGUUCACGUCGCGGCCCCUGUCAGAUUCGGGUGAAUCUGCGAAUUCUGCUGU [G5C U46G] | 0.235
GGGGCCCACAGCAGAAGCGUUCACGUCGCGGCCCCUGUCAGAUUCUGGUGAAUCUGCGAAUUCUGCUGC [G5C U69C] | 0.568
GGGGUCCACAGCAGAAGCGUUCACGUCGCGGCCCCUGUCAGAUUCUGGUAAAUCUGCGAAUUCUGCUGU [G5U G50A] | 0.309
GGGGUCCACAGCAGAAGCGUUCACGUCGCGGCCCCUGGCAGAUUCUGGUGAAUCUGCGAAUUCUGCUGU [G5U U38G] | 0.0473
GGGGUCCACAGCAGAAGCGUUCACGUCGCGGCCCCUGACAGAUUCUGGUGAAUCUGCGAAUUCUGCUGU [G5U U38A] | 0.235
GGGGUCCACAGCAGAAGCGUUCAAGUCGCGGCCCCUGUCAGAUUCUGGUGAAUCUGCGAAUUCUGCUGU [G5U C24A] | 0.105
GGGGUCCACAGCAGAAGCGUUCACGUCGCGGCCCCUGUCAGAUUCUGGUGAAUCUCCGAAUUCUGCUGU [G5U G56C] | 0.163
GGGGUCCACAGCAGAAGCGUUCACGUCGCGGCCCCUGUCAGAUUCUGGUGAAUCUUCGAAUUCUGCUGU [G5U G56U] | 0.104
GGGGUCCACAGCAGAAGCGUUCACGUCGCGGCCCCUGUCAGAUUCUGGUGAAUCUACGAAUUCUGCUGU [G5U G56A] | 0.137
GGGGUCCACAGCAGAAGCGUUCACGUCGCGGCCCCUGUCAGAUUCUGGUGACUCUGCGAAUUCUGCUGU [G5U A52C] | 0.176
GGGGUCCACAGCAGAAGCGUUCACGUCGCAGCCCCUGUCAGAUUCUGGUGAAUCUGCGAAUUCUGCUGU [G5U G30A] | 0.0886
GGGGCCCACAGCAGAAGCGUUCACGUCGCGGCCCCUGUCAGAUUCUGGUGAAUCCGCGAAUUCUGCUGU [G5C U55C] | 0.175
GGGGCCCACAGCAGAAGCGUUCACGUCGCGGCCCCUGUCAGAUUCUGGUGAAUCGGCGAAUUCUGCUGU [G5C U55G] | 0.115
GGGGUCCACAGCAGAAGCGUUCACGUCGCGGCACCUGUCAGAUUCUGGUGAAUCUGCGAAUUCUGCUGU [G5U C33A] | 0.0802
GGGGUCCACAGCAGAAGCGUUCACGUCGCGGCUCCUGUCAGAUUCUGGUGAAUCUGCGAAUUCUGCUGU [G5U C33U] | 0.121
GGGGUCCACAGCAGAAGCGUUCACGUCGCGGCGCCUGUCAGAUUCUGGUGAAUCUGCGAAUUCUGCUGU [G5U C33G] | 0.0433
GGGGUCCACAGCAGAAGCGUUCACGUCGCGGCCCCCGUCAGAUUCUGGUGAAUCUGCGAAUUCUGCUGU [G5U U36C] | 0.21
GGGGCCCACAGCAGAAGCGUUCACGUCGCGGCCCCUGUCAGAUGCUGGUGAAUCUGCGAAUUCUGCUGU [G5C U44G] | 0.203
GGGGCCCACAGCAGAAGCGUUCACGUCGCGGCCCCUGUCAGAUACUGGUGAAUCUGCGAAUUCUGCUGU [G5C U44A] | 0.24
GGGGUCCACAGCAGAAGCGUUCACGUCGCGGCCCCUGUCAGAAUCUGGUGAAUCUGCGAAUUCUGCUGU [G5U U43A] | 0.111
GGGGUCCACAGCAGAAGCGUUCACGUCGCGGCCCCUGUCAGACUCUGGUGAAUCUGCGAAUUCUGCUGU [G5U U43C] | 0.133
GGGGUCCACAGCAGAAGCGUUCACGUAGCGGCCCCUGUCAGAUUCUGGUGAAUCUGCGAAUUCUGCUGU [G5U C27A] | 0.116
GGGGUCCACAGCAGAAGCGUUCACGUCGCGGCCCCUGUCAGAUUCUGGUGAAUGUGCGAAUUCUGCUGU [G5U C54G] | 0.106
GGGGUCCACAGCAGAAGCGUUCACGUCGCGGCCCCUGUCAGAUUCUGGUGAAUAUGCGAAUUCUGCUGU [G5U C54A] | 0.104

Variant | self-cleavage
GGGGUCCACAGCACAAGCGUUCACGUCGCGGCCCCUGUCAGAUUCUGGUGAAUCUGCGAAUUCUGCUGU [G5U G14C] | 0.0568
GGGGUCCACAGCAGAAGCGUUCACGUCGCGGCCUCUGUCAGAUUCUGGUGAAUCUGCGAAUUCUGCUGU [G5U C34U] | 0.111
GGGGUCCACAGCAGAAGCGUUCACGUCGCGGCCCCUGUCAGAUUCUGGUGAACCUGCGAAUUCUGCUGU [G5U U53C] | 0.0878
GGGGUCCACAGCAGAAGCGUUCACGUCGCGGCCCCUGUCAGAUUCUGGUGAAACUGCGAAUUCUGCUGU [G5U U53A] | 0.116
GGGGUCCACAGCAGAAGUGUUCACGUCGCGGCCCCUGUCAGAUUCUGGUGAAUCUGCGAAUUCUGCUGU [G5U C18U] | 0.063
GGGGUCCACAGCAGAAGCGUUCACGUCGCGGCCCCUGUCAGAUUCUGGUGAAUCCGCGAAUUCUGCUGU [G5U U55C] | 0.147
GGGGUCCACAGCCGAAGCGUUCACGUCGCGGCCCCUGUCAGAUUCUGGUGAAUCUGCGAAUUCUGCUGU [G5U A13C] | 0.0841
GGGGCCCACAGCAGAAGCGUUCACGUCGCGGCCCCUGUCAGAUUCUGGUGAAACUGCGAAUUCUGCUGU [G5C U53A] | 0.175
GGGGCCCACAGCAGAAGCGUUCACGUCGCGGCCCCUGUCAGAUUCUGGUGAACCUGCGAAUUCUGCUGU [G5C U53C] | 0.151
GGGGCCCACAGCAGAAGCGUUCACGUCGCGGCCCCUGUCAGAUUCUGGUGAAGCUGCGAAUUCUGCUGU [G5C U53G] | 0.212
GGGGUCCACAGCAGAAGCGUUCACGUCGUGGCCCCUGUCAGAUUCUGGUGAAUCUGCGAAUUCUGCUGU [G5U C29U] | 0.103
GGGGUCCACAGCAGAAGCGUUCACGUCGCGGCCCCUGUCAGAUUCUGGUGAAUCUGCGAAUUCUGCUGU [G5U] | 0.316
GGGGCCCACAGCAGAAGCGUUCACGUCGCGGCCCCUGUCAGAUUCUGGAGAAUCUGCGAAUUCUGCUGU [G5C U49A] | 0.287
GGGGCCCACAGCAGAAGCGUUCACGUCGCGGCCCCUGUCAGAUUCUGGGGAAUCUGCGAAUUCUGCUGU [G5C U49G] | 0.282
GGGGCCCACAGCAGAAGCGUUCACGUCGCGGCCCCUGUCAGAUUCUGGCGAAUCUGCGAAUUCUGCUGU [G5C U49C] | 0.282
GGGGUCCACAGCAGAAGCGUUCACGUCGCGGCCCCUGUCAGAUUCUGGUGAAUCUGCGAAUUCUCCUGU [G5U G65C] | 0.205
GGGGUCCUCAGCAGAAGCGUUCACGUCGCGGCCCCUGUCAGAUUCUGGUGAAUCUGCGAAUUCUGCUGU [G5U A8U] | 0.151
GGGGUCCACAGCAGAAGCGUUUACGUCGCGGCCCCUGUCAGAUUCUGGUGAAUCUGCGAAUUCUGCUGU [G5U C22U] | 0.0607
GGGGUCCACAGCAGAAGCGUUAACGUCGCGGCCCCUGUCAGAUUCUGGUGAAUCUGCGAAUUCUGCUGU [G5U C22A] | 0.0283
GGGGUCCACAGCAGAAGCGUUCACGUCGCGGCCCAUGUCAGAUUCUGGUGAAUCUGCGAAUUCUGCUGU [G5U C35A] | 0.0833
GGGGUCCACAGCAGAAGCGUUCACGUCGCGGCCCUUGUCAGAUUCUGGUGAAUCUGCGAAUUCUGCUGU [G5U C35U] | 0.0952
GGGGUCCACAGCAGAAGCGUUCACGUCGCGGCCCCUGUCAGAUUCUGGUGAAUCUGCUAAUUCUGCUGU [G5U G58U] | 0.37
GGGGUCCACAGCAGAAGCGUUCACGUCGCGGCCCCUGUCAGAUUCUGGUGAAUCUGCCAAUUCUGCUGU [G5U G58C] | 0.2
GGGGUCCACAGCAGAAGCGUUCACGUCGCGGCCCCUGUCAGAUUCUGGUGAAUCUGCAAAUUCUGCUGU [G5U G58A] | 0.172
GGGGUCCACAGCAGAAGCGUUCACGUCGCGGCCCCUGUCAGAUUCUGGGGAAUCUGCGAAUUCUGCUGU [G5U U49G] | 0.171
GGGGUCCACAGCAGAAGCGUGCACGUCGCGGCCCCUGUCAGAUUCUGGUGAAUCUGCGAAUUCUGCUGU [G5U U21G] | 0.0935

From the RNAGym collection of RNA variant scans (doi:10.7554/elife.80360)
